We go through four molecules from PMC2954370 (Antiviral research, 2010).

The labels stand for the following.
B4: HIV-1 envelope glycoprotein gp120 of isolate Bal (natural protein)
chain: not shown

Assay [1] has as its target T1, HIV-1 Env gp140 of isolate JRFL (HIV-1 isolate JRFL (clade B), UniProt Q75760). The assay is described as follows: cell-based or functional assay.
In assay [2] the target is B4. Briefly: cell-based or functional assay.
For assay [3], the target named is T1, HIV-1 Env gp140 of isolate JRFL. The assay is described as follows: ELISA. Background: ELISA stands for enzyme-linked immunosorbent assay.
The target of assay [4] is B4. The assay is described as follows: ELISA.
For assay [5], the target named is fusion protein of m36 with human IgG1 Fc (human). The assay is described as follows: ELISA.

B1: m36 mutant m36.4 (VHH)
VHH: QVQLVQSGGGLVQPGGSLRLSCAASAFDFSDYEMSWVREAPGKGLEWIGEINDSGNTIYNPSLKSRVTISRDNSKNTLYLQMNTLRAEDTAIYYCAIYGGNSGGEYWGQGTLVTVSS
With B1, the “IC50 of neutralisation of HIV-1 JRFL Env-pseudotyped virus, HOS-CD4-CCR5 cells” value in assay [1] turned out to be 27 nM. Also, the “IC50 of neutralisation of HIV-1 Bal Env-pseudotyped virus, HOS-CD4-CCR5 cells” value in assay [2] turned out to be 11 nM.

B2: m36 mutant m36.5 (VHH)
VHH: QVQLVQSGGGLVQPGGSLRLSCAASAFDFSDYEMSWVREAPGKGLEWIGEINDSGNTIYNPSLKSRVTISRDNSKNTLYLQMNTLSAEDTAIYYCAIYGGNSGGEYWGQGTLVTVSS
For B2, the binding result in assay [3] and in assay [4] was “binds” each time.

B3: m36 mutant m36.1 (VHH)
VHH: QVQLVQSGGGLVQPGGSLRLSCAASTFDFSDYEMSWVREAPGKGLEWIGEINDSGNTIYNPSLKNRVTISRDNSKNTLYLQMNTLRAEDTAIYYCAIYGGNSGGEYWGQGTLVTVSS
On to B3, for which the binding result in assay [3] and in assay [4] was “binds” in each case.

For the molecule B4, the binding result in assay [5] was “binds”.
